Results on 1 substance are retold here after publication doi:10.1101/2024.03.08.584019.

In the experiment the target is GNNV-P R276A (Dragon grouper (Epinephelus lanceolatus) nervous necrosis virus). Put plainly: AUC.

In the case of GNNV-P R276A (domain or fragment), the stoichiometry N turned out to be 3.

One may read the stoichiometry N as a count of units in the complex or per binding partner.
